Assay results as given in article PMC6468047, “Cannabinoid CB1 and CB2 Receptor-Mediated Arrestin Translocation: Species, Subtype, and Agonist-Dependence” (Frontiers in Pharmacology, 2019).

Key:
[1] = biological target: T1, CB2 (hCB2) (Homo sapiens, UniProt P34972); assay: BRET human β-arrestin-2 plasma membrane translocation; format: cell-based; settings: read-out: CB2 / logEC50 ± SEM (converted)
T1 construct: gene CNR2; 3HA-hCB2 in pEF4a: N-terminal 3xHA tag, untagged C-terminus; transient in HEK-293 with Rluc8-arrestin and mem-linker-Citrine reporters

[2] = biological target: T1, CB2 (hCB2); assay: BRET human β-arrestin-1 plasma membrane translocation; format: cell-based; settings: 10 µM; HEK-293, 37 °C, single concentration 10 μM, no GRK2 co-expression
Excerpt: BRET human β-arrestin-1 plasma membrane translocation on CB2 (hCB2)

[3] = biological target: human D2 dopamine receptor (3HA-hD2R) (human) (UniProt P14416)
[4] = biological target: human vasopressin receptor 2 (3HA-hV2R) (human) (UniProt P30518)
[5] = biological target: human cannabinoid receptor 1 (pplss-3HA-hCB1) (human) (UniProt P21554)
[6] = biological target: human cannabinoid receptor 2 (3HA-hCB2) (human) (UniProt P34972)
Chain of human cannabinoid receptor 2 (3HA-hCB2) (human) (P34972 whole entry): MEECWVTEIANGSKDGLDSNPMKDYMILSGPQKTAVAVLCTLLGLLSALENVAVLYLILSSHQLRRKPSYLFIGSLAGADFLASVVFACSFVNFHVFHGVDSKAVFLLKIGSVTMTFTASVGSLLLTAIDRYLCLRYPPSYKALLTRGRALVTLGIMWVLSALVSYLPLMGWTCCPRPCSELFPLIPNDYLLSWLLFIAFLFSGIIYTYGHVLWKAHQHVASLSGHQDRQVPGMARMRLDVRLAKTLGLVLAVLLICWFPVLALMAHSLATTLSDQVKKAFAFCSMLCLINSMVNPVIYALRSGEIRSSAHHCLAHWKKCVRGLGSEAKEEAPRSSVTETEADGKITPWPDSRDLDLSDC

Chain of human cannabinoid receptor 1 (pplss-3HA-hCB1) (human) (P21554 whole entry): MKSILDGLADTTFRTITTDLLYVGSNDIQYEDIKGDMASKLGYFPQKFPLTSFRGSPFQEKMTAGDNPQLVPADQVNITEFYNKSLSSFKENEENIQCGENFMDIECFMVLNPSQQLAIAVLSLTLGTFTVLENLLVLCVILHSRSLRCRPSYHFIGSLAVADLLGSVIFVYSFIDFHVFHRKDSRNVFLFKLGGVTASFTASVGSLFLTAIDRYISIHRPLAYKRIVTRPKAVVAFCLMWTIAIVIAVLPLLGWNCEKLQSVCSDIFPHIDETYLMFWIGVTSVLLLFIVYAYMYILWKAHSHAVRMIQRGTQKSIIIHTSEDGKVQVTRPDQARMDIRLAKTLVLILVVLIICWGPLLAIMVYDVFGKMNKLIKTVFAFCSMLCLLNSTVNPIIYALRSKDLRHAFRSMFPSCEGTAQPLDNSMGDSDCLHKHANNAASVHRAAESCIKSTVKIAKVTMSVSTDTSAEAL
Chain of bovine β-arrestin-1 (Rluc8-bβ-arrestin-1-Sp1) (P17870 whole entry): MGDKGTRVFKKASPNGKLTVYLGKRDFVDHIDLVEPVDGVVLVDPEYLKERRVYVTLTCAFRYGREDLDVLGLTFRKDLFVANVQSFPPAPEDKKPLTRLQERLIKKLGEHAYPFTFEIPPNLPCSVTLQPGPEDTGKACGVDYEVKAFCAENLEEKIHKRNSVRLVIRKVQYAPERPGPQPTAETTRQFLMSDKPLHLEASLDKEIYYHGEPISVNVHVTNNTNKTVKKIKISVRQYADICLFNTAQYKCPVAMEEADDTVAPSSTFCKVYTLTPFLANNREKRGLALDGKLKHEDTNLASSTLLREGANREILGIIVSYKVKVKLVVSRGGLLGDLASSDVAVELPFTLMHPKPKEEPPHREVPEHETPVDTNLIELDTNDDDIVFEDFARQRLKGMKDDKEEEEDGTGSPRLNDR
T1 sequence (P34972 whole entry): as the sequence (P34972 whole entry) above
Chain of human D2 dopamine receptor (3HA-hD2R) (human) (P14416 whole entry): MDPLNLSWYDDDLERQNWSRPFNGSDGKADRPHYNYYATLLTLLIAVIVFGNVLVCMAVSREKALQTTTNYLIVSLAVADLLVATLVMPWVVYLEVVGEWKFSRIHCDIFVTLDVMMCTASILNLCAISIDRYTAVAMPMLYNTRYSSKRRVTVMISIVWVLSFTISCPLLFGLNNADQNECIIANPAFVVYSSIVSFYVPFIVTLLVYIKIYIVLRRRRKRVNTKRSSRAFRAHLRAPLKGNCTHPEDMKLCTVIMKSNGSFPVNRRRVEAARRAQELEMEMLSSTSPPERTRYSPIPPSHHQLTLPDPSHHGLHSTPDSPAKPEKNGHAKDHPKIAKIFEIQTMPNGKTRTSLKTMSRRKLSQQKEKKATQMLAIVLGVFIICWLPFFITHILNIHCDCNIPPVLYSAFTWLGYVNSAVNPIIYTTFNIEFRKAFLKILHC

CCCCC/C=C\C/C=C\C/C=C\C/C=C\CCCC(=O)OC(CO)CO [2-AG]
EC50 [1]: 1.86 µM

CCCCCc1cc(O)c2c(c1)OC(C)(C)[C@@H]1CCC(C)=C[C@@H]21 [THC]
CB2 / Response ± SEM (ΔBRET.sec) [2]: 14.4 ± 2.8 ΔBRET.sec

bovine β-arrestin-1 (Rluc8-bβ-arrestin-1-Sp1) (from UniProt P17870 1-418) (natural protein)
Response, arrestin translocation to the plasma membrane (BRET, AUC of 25 min); 10 μM dopamine [3]: 23.4 ΔBRET.sec | Response, arrestin translocation to the plasma membrane (BRET, AUC of 25 min); 10 μM dopamine; GRK2 co-expressed [3]: 95 ΔBRET.sec | Emax, arrestin translocation to the plasma membrane (BRET, AUC of 25 min); agonist AVP [4]: 177 ΔBRET.sec | Response, arrestin translocation to the plasma membrane (BRET, AUC of 25 min); 1 μM CP55,940 (significantly different from vehicle) [5]: 20.8 ΔBRET.sec | Response, arrestin translocation to the plasma membrane (BRET, AUC of 25 min); 1 μM CP55,940; GRK2 co-expressed (significantly different from vehicle) [5]: 44.4 ΔBRET.sec | Response, arrestin translocation to the plasma membrane (BRET, AUC of 25 min); 10 μM AEA (no significant response) [5]: 6.9 ΔBRET.sec | Response, arrestin translocation to the plasma membrane (BRET, AUC of 25 min); 10 μM BAY (no significant response) [5]: 0.7 ΔBRET.sec | Response, arrestin translocation to the plasma membrane (BRET, AUC of 25 min); 10 μM THC (no significant response) [5]: 6.5 ΔBRET.sec | Response, arrestin translocation to the plasma membrane (BRET, AUC of 25 min); 10 μM WIN55,212-2 (significantly different from vehicle) [5]: 48.5 ΔBRET.sec | Response, arrestin translocation to the plasma membrane (BRET, AUC of 25 min); 31.6 μM 2-AG (significantly different from vehicle) [5]: 33.7 ΔBRET.sec | Response, arrestin translocation to the plasma membrane (BRET, AUC of 25 min); 31.6 μM 2-AG; GRK2 co-expressed (significantly different from vehicle) [5]: 49.1 ΔBRET.sec | Response, arrestin translocation to the plasma membrane (BRET, AUC of 25 min); 1 μM CP55,940 (significantly different from vehicle) [6]: 21.5 ΔBRET.sec | Response, arrestin translocation to the plasma membrane (BRET, AUC of 25 min); 1 μM CP55,940; GRK2 co-expressed (significantly different from vehicle) [6]: 29 ΔBRET.sec | Response, arrestin translocation to the plasma membrane (BRET, AUC of 25 min); 10 μM JWH-015 (not significantly different from vehicle) [6]: 14.2 ΔBRET.sec | Response, arrestin translocation to the plasma membrane (BRET, AUC of 25 min); 10 μM JWH-133 (not significantly different from vehicle) [6]: 7.4 ΔBRET.sec | Response, arrestin translocation to the plasma membrane (BRET, AUC of 25 min); 10 μM THC (not significantly different from vehicle) [6]: 10.8 ΔBRET.sec | Response, arrestin translocation to the plasma membrane (BRET, AUC of 25 min); 10 μM WIN55,212-2 (significantly different from vehicle) [6]: 22.2 ΔBRET.sec | Response, arrestin translocation to the plasma membrane (BRET, AUC of 25 min); 31.6 μM 2-AG (not significantly different from vehicle) [6]: 14.2 ΔBRET.sec | Response, arrestin translocation to the plasma membrane (BRET, AUC of 25 min); 31.6 μM 2-AG; GRK2 co-expressed (significantly different from vehicle) [6]: 17.5 ΔBRET.sec
